Laboratory results published in the DeepSol protein solubility set.

Test: soluble on expression in E. coli; label from the status in PepcDB or PDB records

Soluble on expression in E. coli, not soluble:
MGSDKIHHHHHHMEHPENNEEYKGLVVNKGIEQPSSVNPYLKRKPKKRQLSVAEFVEGIVKGDVTILSQAVTLVESVKPEHQAVAQEVIEKCLPYSGNSIRVGISGVPGAGKSTSIDVFGLHVLEKGGKLAVLAIDPSSERSKGSILGDKTRMEQLSVHPQSFIRPSPSAGSLGGVARKTRETIVLCEAAGFDKIFVETVGVGQSETAVHSMVDFFLLIQLAGTGDELQGIKRGIMEMADGIVINKADGDNLEPAKLAASQFRNALHLFPAPESGWIPKVLTYSGFYNIGVKEIWDMVYEYIDFVKKNGYFDYRRNEQSKYWMYETINEQLRDSFYHNPRIEAMLQEKEQQVLQGNLTSFIAAKSLLDTYFDELKR
MGSDKIHHHHHHMEIKKFIENYREAFGEYAELPIVFWYSDILENETGKVNGCFFKSMSKVRGGNTISLNAETIGCGGGKFYTGFTDMPEHVPTFVSLKERYKQTPEMVKSFIEQLGVPRAEKEYLHFARIDKVETFDHLEGILFLANPDILSGLTTWAFFDNNKEDTVISTFGSGCSSVVTQTILENRKGGYRTFIGFFDPSVRPYFEADILSYTIPMSRFKVMYETMRSSCLFDTHAWGKIRERNHNSYKE
MGSDKIHHHHHHMELRPDLLFLDVELPDVLGLNLLSEMRDEVLWDMKVVFYTSYDKYLLQALRESAFDFLLKPFETGDLRVVIERYRKAVASIPATPSSSFSSSVSALMPQQGMFMISTVTGFKLLRLEEIGYFEYLKDKRQWQVVLFNQTRLNLKRNTKAEDIIGYSQAFIQISQSAIVNVNYLAMIDGKCCQLYPPFHDKSDLVISRSFLKGLQDRFFVL
MGSDKIHHHHHHMEMESPVRILFVIDQFSSPYAGTEGQLLQLISNLPADRFDPELLVLRSSDYVNEGNIPCKVHVLGSSKLFSMKTWLALFQFARRQKQAGTALCHVFFNDSSVLCPPVFGLVGIPTLISRRDMGYWYTRKYLWVLRRTAGFVRGVVANSEAVKRITVQKEGFSDADVSVIYNGYPEGDEELHPLIGEERQRYVETLGLPKSGRFVVLVANLRDIKRIGDAISAMARLTQTLPDTHLVLIGAGDQKPYRMLAEAVGNAGQVHFLGARSDVNNILRVMDVGLLCSESEGYSNAIVEYMQAKLPVVASDVGGNSEAVEHGVTGFLFPMGDVDQMAEQLATVLKGESRAVASMGEAGYKRAGHRHALHTMIEAHCGLYDRLLSGSDYSRSGLGVR
MGSDKIHHHHHHMENVREILQELMSKRKLDQRFNNVMKSVYSDPEVISFCEEHQDELSKEAIERGAAKLYEFVSERNKIKNNQATFLPGYQPELVLSNHLIDIEYVPTKQTHLLEQERHRKALVKSISMPKLIRHASLEGYYQEPERTDALAKTLAFVNEYLERPQDWHKGLYLTGSFGVGKTYLMGAMGNALADEGYSTTIVHFPSLAVELKNAIGSSNTIQTKIDAIKKAPILVIDDIGADSISSWIRDDVLGVILEYRMQEELPTFFTSNFSMDQLEREHLTVNQRGEAEPLKAKRLMERIKFLSEEVSMTGKNHRQD
MGSDKIHHHHHHMENYLGRLWTKAQLSEQLRKIAISLPSFIKKGSDYICTRCSSSVAKNCQLPTGNYYCRECIVFGRVTSNENLYYFPQKTFSKTNSLKWKGELTPYQNEVSEELLKGISSKENLLVHAVTGAGKTEMIYHSVAKVIDTGGSVCIASPRIDVCLELYKRLSNDFRCAITLMHGESPSYQRSPLTIATTHQLLKFYHAFDLLIVDEVDAFPYVDNPILYQGVKQALKENGTSIFLTATSTTELERKVARKELKKLHLARRFHANPLVIPEMVWVSGIQKSLQTQKLPPKLYQLINKQRQTRYPLLLFFPHISEGQVFTEILRQAFPMEKIGFVSSKSTSRLKLVQDFRDNKLSILVSTTILERGVTFPSVDVFVIQANHHLFTKSSLVQISGRVGRALERPEGLLYFLHDGKSKSMHQAIKEIKNMNHIGGF
MGSDKIHHHHHHMEPDFYHGFYPPTPLKTYPEEIFYIGKCTENMQPVGLDIGTNYTKITADGKNVLLYPSIVAYGEEKDWSLKGETKSVYIGDEALSIVQSMENVEVLRPLHEGRVLHTSYLELAKYGLNKLKVKDGLIATGLPVKSSKKEREELKRELESELNSKVLIFPEPVGTMAYMGMETGVCVDIGFGTTDVLVIADMEYLKGDTMLMGVDKLYENLEVAVRNRIGISITPEEMTKLLTTEGYEIGRIRGGKKVSVSREEIMPEYEGYVKTWVERIASRVKLVLEGLSTTLVENFAITGGGSMLPGVYEMFKESFSDIGDVKRPDEPIKANSIGYYILAKSLVVEAETEQSGDAEILDADDKKKGRKGKK
